Measured values as given in PMC11848413, “Bacterial polysaccharide lyase family 33: Specificity from an evolutionarily conserved binding tunnel” (Proceedings of the National Academy of Sciences of the …, 2025).

How the values were obtained:
[1] = target: BT4410 (BtPL33^HA), PL33_1 hyaluronidase from Bacteroides thetaiotaomicron VPI-5482 (Bacteroides thetaiotaomicron VPI-5482); assay: SEC-MALS + other: SAXS; SEC-coupled light scattering and SAXS of the purified enzyme in solution, oligomeric state; conditions not shown (SI Appendix)
[2] = target: the molecule itself; assay: as above

In the case of “BT4410 (BtPL33^HA), PL33_1 hyaluronidase from Bacteroides thetaiotaomicron VPI-5482 (enzyme)”, the stoichiometry N [1] is reported as 2.

B1: HMPREF1181_01744 (BsPL33^Heparosan), PL33_1 heparosanase from Bacteroides stercoris CC31F (enzyme)
chain: TERHLLEQTVSYEELGNVLRYRQSWVDYPAYTDRKSWKEKTAPEMRELIIRNGERALKHEWKPDLASDYLAFKRTGEIRTGRANHKALQALTLAELVEGQGRFMDAIIDGIWFLCETSWIHSAHLGFQKDRSGLPDRNEPTIELVVADIGAQMAWTYYFLKDEFDKVSPLINERIIEEVNRNLINPYFARDDYWWMGFGGQQVNNWNPWINYNVLQALMLIEKDPERVRQGVWKLMKSTDFFFSMYHEDGACDEGPTYWSGASGYALKFLDLLAKVTGNKVNIFNAPLLRNMAQYIYRVHIGGNYFVNFADSAPKVSPSPGILYRYGELTGDPAMMKFASFMAQQNQSFKDGVNGYFASALDELFMYKDIIGHPQGEPLTGTYWFKDTQICVARDTEGKSDGFFFAAKGGNNQESHNHNDVGSCILYYNALPVLIDAGVGTYTRQTFGPERYTIWTMQSDYHNLPLINGTPQKNGREFAAHSQQYKATAKTVSYQVDIAHAYPQEANVKSWIRNYTLHRKKDFTITDKWKLSACNEPSVLNLMTCCEVEIDRNKNITLTGEAGRFRVEYDKKLLSPATDTVELTDPKLIHSWNRKKLTRIRFTIVSQQISGESKLVIRKAQYHKTLND
B1 was tested, and the “stoichiometry N” value [2] was 2.

B2: BcellWH2_04512 (BcPL33^HA), PL33_1 hyaluronidase from Bacteroides cellulosilyticus WH2 (enzyme)
chain: YTERNLLQKAAGSEEQLKEALVMNQKWVPYPAYNDRAGWNELLGTNKESLIRAGEKMLNYEWKVIRATDYLEYERSGERNIMQNPYEANRKAINALMLAELAEGKGRFIDQLINGAFYSCEMTSWVLSAHLVRQSTKRSLPDYREQVIDLGSGNFGSMLSWVYYFFHDSFDKIDPVISQRLRHTLQERILDPYMNNDREWWMAFQWKPGMIINNWNPWCNSNVLQCYLLLENDRDRLAKAVWRSMQSVDKFINFVKADGACEEGPSYWGHAAGKMYDYLQILSDGTDGKVSLFKEPMIRRMGEYISRTYVGNGWVVNFADASAKGGGDAPLIYRYGRAVGSEEMMQFAAYLLDGKRPSVPLGNDTFRSLQSILWNGELEKTTAAHTIPACTWYPETEFCYLTNKSGWFLATKGGFNNESHNHNDVGTFSLYVNTIPVLIDAGVGTYTRQTFSSERYTIWTMQSNYHNLPMINGVPQSFGQNYKATDVVCQPKKRFFSANIATAYPKEAEVNSWTRAYSLGDKQLTITDNFSLKSAKESNQVNFLTWGKVDISVPGKVTIDVQGQKVTLEYPGEFTATVETINLPDTRLSNVWGTEIYRIALKDKDARLTGKYKFVIK
notes: BcellWH2_04512, polysaccharide lyase family 33 subfamily 1 hyaluronidase of Bacteroides cellulosilyticus WH2; 68% identical to BtPL33^HA; Cloned in pET28a with either an N- or a C-terminal His6 tag; source: E. coli BL21 (DE3) or TUNER, purified (Talon cobalt IMAC, S200 Superdex SEC)
B2 was tested, and the “stoichiometry N” value [2] was 2.
